{"source": "patent US20210292396A1", "binders": {"B1": {"name": "ePGT121.18 (ePGT121.18.H1 VH and ePGT121.17.L1 VL) (antibody, V domains shown)", "VH": "QMQLQESGPGLVKPGETLSLTCSVSGASISSSYWSWLRETPGKGLEWIGYTHHSGDTNYAPSLKSRVHLGLHPSKNQVSLSLTSVTAADTAVYYCARTLHGRRIYGVVAFNEYYTYFYWPTWGKGTQVTVSS", "VL": "SDISVAPGETVRITCGGESIGSRAVQWYQHRPGQAPRLIIYNNQDRPPGIPERFSGSPDIDFGTTATLTISNVEAGDEATYYCHIWDSRRPTNWELGPGTTLTVL"}}, "assay_in_all_cases": "cell-based or functional assay", "key": {"[1]": {"molecular_target": "Env of HIV isolate ZM249.1 (clade C) (HIV)"}, "[2]": {"molecular_target": "HIV Env of isolate 0013095-2.11 (HIV)"}, "[3]": {"molecular_target": "HIV Env of isolate DU123.06 (HIV)"}, "[4]": {"molecular_target": "Env of HIV isolate T255-34 (clade AG) (HIV)"}, "[5]": {"molecular_target": "Env of HIV isolate ZM135.10a (clade C) (HIV)"}, "[6]": {"molecular_target": "Env of HIV isolate CH117.4 (clade BC) (HIV)"}, "[7]": {"molecular_target": "HIV Env of isolate CNE30 (HIV)"}, "[8]": {"molecular_target": "Env of HIV isolate CM244.ec1 (clade AE) (HIV)"}, "[9]": {"molecular_target": "Env of HIV isolate KNH1209.18 (clade A) (HIV)"}, "[10]": {"molecular_target": "Env of HIV isolate 0260.v5.c36 (clade A) (HIV)"}, "[11]": {"molecular_target": "Env of HIV isolate C1080.c3 (clade AE) (HIV)"}, "[12]": {"molecular_target": "HIV Env of isolate X2131.C1.B5 (HIV)"}, "[13]": {"molecular_target": "Env of HIV isolate X2278.C2.B6 (clade B) (HIV)"}, "[14]": {"molecular_target": "Env of HIV isolate T280-5 (clade AG) (HIV)"}, "[15]": {"molecular_target": "HIV Env of isolate 57128.vrc15 (HIV)"}, "[16]": {"molecular_target": "HIV Env of isolate X1632.S2.B10 (HIV)"}, "[17]": {"molecular_target": "Env of HIV isolate T33-7 (clade AG) (HIV)"}, "[18]": {"molecular_target": "Env of HIV isolate HXB2.DG (clade B) (HIV)"}, "[19]": {"molecular_target": "HIV Env of isolate CNE15 (HIV)"}, "[20]": {"molecular_target": "Env of HIV isolate YU2.DG (clade B) (HIV)"}, "[21]": {"molecular_target": "Env of HIV isolate TH966.8 (clade AE) (HIV)"}, "[22]": {"molecular_target": "HIV Env of isolate ZM215.8 (HIV)"}, "[23]": {"molecular_target": "Env of HIV isolate PVO.04 (clade B) (HIV)"}, "[24]": {"molecular_target": "Env of HIV isolate DU172.17 (clade C) (HIV)"}, "[25]": {"molecular_target": "Env of HIV isolate TRO.11 (clade B) (HIV)"}, "[26]": {"molecular_target": "HIV Env of isolate NKU3006.ec1 (HIV)"}, "[27]": {"molecular_target": "Env of HIV isolate SS1196.01 (clade B) (HIV)"}, "[28]": {"molecular_target": "HIV Env of isolate 6644.v2.c33 (HIV)"}, "[29]": {"molecular_target": "Env of HIV isolate ADA.DG (clade B) (HIV)"}, "[30]": {"molecular_target": "Env of HIV isolate X1193.c1 (clade G) (HIV)"}, "[31]": {"molecular_target": "HIV Env of isolate 16845-2.22 (HIV)"}, "[32]": {"molecular_target": "Envelope protein of SIVmac251.30.SG3 (clade NA)"}, "[33]": {"molecular_target": "Env of HIV isolate 6405.v4.c34 (clade D) (HIV)"}, "[34]": {"molecular_target": "Env of HIV isolate DU123.06 (clade C) (HIV)"}, "[35]": {"molecular_target": "Env of HIV isolate A03349M1.vrc4a (clade D) (HIV)"}, "[36]": {"molecular_target": "Env of HIV isolate CAAN.A2 (clade B) (HIV)"}, "[37]": {"molecular_target": "Env of HIV isolate T251-18 (clade AG) (HIV)"}, "[38]": {"molecular_target": "Env of HIV isolate BB201.B42 (clade A) (HIV)"}, "[39]": {"molecular_target": "Env of HIV isolate 89.6.DG (clade B) (HIV)"}, "[40]": {"molecular_target": "Env of HIV isolate BB539.2B13 (clade A) (HIV)"}, "[41]": {"molecular_target": "HIV Env of isolate 286.36 (HIV)"}, "[42]": {"molecular_target": "HIV Env of isolate ZM53.12 (HIV)"}, "[43]": {"molecular_target": "Env of HIV isolate Bal.01 (clade B) (HIV)"}, "[44]": {"molecular_target": "Env of HIV isolate 288.38 (clade C) (HIV)"}, "[45]": {"molecular_target": "Env of HIV isolate CNE4 (clade B) (HIV)"}, "[46]": {"molecular_target": "Env of HIV isolate ZM215.8 (clade C) (HIV)"}, "[47]": {"molecular_target": "Env of HIV isolate 3415.v1.c1 (clade A) (HIV)"}, "[48]": {"molecular_target": "Env of HIV isolate BJOX009000.02.4 (clade AE) (HIV)"}, "[49]": {"molecular_target": "HIV Env of isolate CNE7 (HIV)"}}}
{"binder": "B1", "values": [{"measurement": "IC50, pseudovirus neutralization", "setting": "[1]", "result": 134, "unit": "ng/mL"}, {"measurement": "IC80, pseudovirus neutralization (M1)", "setting": "[2]", "result": 4210, "unit": "ng/mL"}, {"measurement": "IC80, pseudovirus neutralization (M2)", "setting": "[2]", "result": 2160, "unit": "ng/mL"}, {"measurement": "IC80, pseudovirus neutralization (M1)", "setting": "[3]", "result": 6, "unit": "ng/mL"}, {"measurement": "IC80, pseudovirus neutralization (M2)", "setting": "[3]", "result": 5, "unit": "ng/mL"}, {"measurement": "IC50, pseudovirus neutralization", "setting": "[4]", "result": 16, "unit": "ng/mL"}, {"measurement": "IC50, pseudovirus neutralization", "setting": "[5]", "result": 26, "unit": "ng/mL"}, {"measurement": "IC50, pseudovirus neutralization", "setting": "[6]", "result": "> 50000", "unit": "ng/mL"}, {"measurement": "IC80, pseudovirus neutralization (M1)", "setting": "[7]", "result": 13, "unit": "ng/mL"}, {"measurement": "IC80, pseudovirus neutralization (M2)", "setting": "[7]", "result": 16, "unit": "ng/mL"}, {"measurement": "IC50, pseudovirus neutralization", "setting": "[8]", "result": 460, "unit": "ng/mL"}, {"measurement": "IC50, pseudovirus neutralization", "setting": "[9]", "result": 1, "unit": "ng/mL"}, {"measurement": "IC50, pseudovirus neutralization", "setting": "[10]", "result": 2, "unit": "ng/mL"}, {"measurement": "IC50, pseudovirus neutralization", "setting": "[11]", "result": "> 50000", "unit": "ng/mL"}, {"measurement": "IC80, pseudovirus neutralization (M1)", "setting": "[12]", "result": 2, "unit": "ng/mL"}, {"measurement": "IC80, pseudovirus neutralization (M2)", "setting": "[12]", "result": 3, "unit": "ng/mL"}, {"measurement": "IC50, pseudovirus neutralization", "setting": "[13]", "result": 1, "unit": "ng/mL"}, {"measurement": "IC50, pseudovirus neutralization", "setting": "[14]", "result": 2, "unit": "ng/mL"}, {"measurement": "IC80, pseudovirus neutralization (M1)", "setting": "[15]", "result": 9, "unit": "ng/mL"}, {"measurement": "IC80, pseudovirus neutralization (M2)", "setting": "[15]", "result": 10, "unit": "ng/mL"}, {"measurement": "IC80, pseudovirus neutralization (M1)", "setting": "[16]", "result": "> 50000", "unit": "ng/mL"}, {"measurement": "IC80, pseudovirus neutralization (M2)", "setting": "[16]", "result": "> 50000", "unit": "ng/mL"}, {"measurement": "IC50, pseudovirus neutralization", "setting": "[17]", "result": "> 50000", "unit": "ng/mL"}, {"measurement": "IC50, pseudovirus neutralization", "setting": "[18]", "result": 3, "unit": "ng/mL"}, {"measurement": "IC80, pseudovirus neutralization (M1)", "setting": "[19]", "result": 36400, "unit": "ng/mL"}, {"measurement": "IC80, pseudovirus neutralization (M2)", "setting": "[19]", "result": "> 50000", "unit": "ng/mL"}, {"measurement": "IC50, pseudovirus neutralization", "setting": "[20]", "result": 3, "unit": "ng/mL"}, {"measurement": "IC50, pseudovirus neutralization", "setting": "[21]", "result": "> 50000", "unit": "ng/mL"}, {"measurement": "IC80, pseudovirus neutralization (M1)", "setting": "[22]", "result": 23, "unit": "ng/mL"}, {"measurement": "IC80, pseudovirus neutralization (M2)", "setting": "[22]", "result": 26, "unit": "ng/mL"}, {"measurement": "IC50, pseudovirus neutralization", "setting": "[23]", "result": 3, "unit": "ng/mL"}, {"measurement": "IC50, pseudovirus neutralization", "setting": "[24]", "result": 3, "unit": "ng/mL"}, {"measurement": "IC50, pseudovirus neutralization", "setting": "[25]", "result": 2, "unit": "ng/mL"}, {"measurement": "IC80, pseudovirus neutralization (M1)", "setting": "[26]", "result": "> 50000", "unit": "ng/mL"}, {"measurement": "IC80, pseudovirus neutralization (M2)", "setting": "[26]", "result": "> 50000", "unit": "ng/mL"}, {"measurement": "IC50, pseudovirus neutralization", "setting": "[27]", "result": 2, "unit": "ng/mL"}, {"measurement": "IC80, pseudovirus neutralization (M1)", "setting": "[28]", "result": 5, "unit": "ng/mL"}, {"measurement": "IC80, pseudovirus neutralization (M2)", "setting": "[28]", "result": 6, "unit": "ng/mL"}, {"measurement": "IC50, pseudovirus neutralization", "setting": "[29]", "result": 2, "unit": "ng/mL"}, {"measurement": "IC50, pseudovirus neutralization", "setting": "[30]", "result": 2, "unit": "ng/mL"}, {"measurement": "IC80, pseudovirus neutralization (M1)", "setting": "[31]", "result": 127, "unit": "ng/mL"}, {"measurement": "IC80, pseudovirus neutralization (M2)", "setting": "[31]", "result": 105, "unit": "ng/mL"}, {"measurement": "IC50, pseudovirus neutralization", "setting": "[32]", "result": "> 50000", "unit": "ng/mL"}, {"measurement": "IC50, pseudovirus neutralization", "setting": "[33]", "result": 1, "unit": "ng/mL"}, {"measurement": "IC50, pseudovirus neutralization", "setting": "[34]", "result": 2, "unit": "ng/mL"}, {"measurement": "IC50, pseudovirus neutralization", "setting": "[35]", "result": 2, "unit": "ng/mL"}, {"measurement": "IC50, pseudovirus neutralization", "setting": "[36]", "result": 2, "unit": "ng/mL"}, {"measurement": "IC50, pseudovirus neutralization", "setting": "[37]", "result": 19, "unit": "ng/mL"}, {"measurement": "IC50, pseudovirus neutralization", "setting": "[38]", "result": 2, "unit": "ng/mL"}, {"measurement": "IC50, pseudovirus neutralization", "setting": "[39]", "result": 1, "unit": "ng/mL"}, {"measurement": "IC50, pseudovirus neutralization", "setting": "[40]", "result": "> 50000", "unit": "ng/mL"}, {"measurement": "IC80, pseudovirus neutralization (M1)", "setting": "[41]", "result": 3, "unit": "ng/mL"}, {"measurement": "IC80, pseudovirus neutralization (M2)", "setting": "[41]", "result": 4, "unit": "ng/mL"}, {"measurement": "IC80, pseudovirus neutralization (M1)", "setting": "[42]", "result": 20, "unit": "ng/mL"}, {"measurement": "IC80, pseudovirus neutralization (M2)", "setting": "[42]", "result": 32, "unit": "ng/mL"}, {"measurement": "IC50, pseudovirus neutralization", "setting": "[43]", "result": 2, "unit": "ng/mL"}, {"measurement": "IC50, pseudovirus neutralization", "setting": "[44]", "result": 0.8, "unit": "ng/mL"}, {"measurement": "IC50, pseudovirus neutralization", "setting": "[45]", "result": 2, "unit": "ng/mL"}, {"measurement": "IC50, pseudovirus neutralization", "setting": "[46]", "result": 6, "unit": "ng/mL"}, {"measurement": "IC50, pseudovirus neutralization", "setting": "[47]", "result": 6, "unit": "ng/mL"}, {"measurement": "IC50, pseudovirus neutralization", "setting": "[48]", "result": 42, "unit": "ng/mL"}, {"measurement": "IC80, pseudovirus neutralization (M1)", "setting": "[49]", "result": 8, "unit": "ng/mL"}, {"measurement": "IC80, pseudovirus neutralization (M2)", "setting": "[49]", "result": 7, "unit": "ng/mL"}]}
